Experimental findings from patent publication US20260365696A1, “INHIBITORS OF PTP1B / NCK1 INTERACTION AND METHODS OF MAKING AND USING SAME” (Radella Pharmaceuticals LLC, priority 2023, published 2026) are described below.

Common to all, as to test: ITC
On the technique in general: ITC needs no label: the signal is the heat of the interaction.

For assay [1], the target named is T1, NCK1 SH3-2 domain (human).
T1 chain: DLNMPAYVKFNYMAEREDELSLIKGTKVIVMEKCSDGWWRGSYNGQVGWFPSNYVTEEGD

The target of assay [2] is T1, NCK1 SH3-2 domain.
Assay [3] has as its target T1, NCK1 SH3-2 domain.
Assay [4] deals with T1, NCK1 SH3-2 domain.
Assay [5] deals with T1, NCK1 SH3-2 domain.
Assay [6] addresses T1, NCK1 SH3-2 domain.
In assay [7] the target is T1, NCK1 SH3-2 domain.
Assay [8] deals with T1, NCK1 SH3-2 domain.

Where two headings read alike, the source gives them in different places. Non-standard residues stand in square brackets, D forms with d. No end group written: not given here. pGlu = O=C1CC[C@@H](C(=O)O)N1

As a reminder, the Kd is the equilibrium constant for the complex coming apart. High values mean lower affinity, low ones higher affinity. For the molecule Ac-PPEHIP-NH2 [MH040], the Kd with NCK1 SH3-2 domain [1] is above 1000 µM.

[pGlu]RPPKR-NH2 [MH044]: in the assay with NCK1 SH3-2 domain [2], the binding result is recorded as “no binding”.

As to Ac-PRPPKA-NH2 [MH013], in the assay with NCK1 SH3-2 domain [3], the Kd is above 1000 µM.

The molecule Ac-PPRPPKK-NH2 [MH076] yielded a Kd with NCK1 SH3-2 domain [4] above 1000 µM.

Regarding Ac-PRAPKR-NH2 [MH010], the Kd with NCK1 SH3-2 domain [3] is above 1000 µM.

As to Ac-APRPPKR-NH2 [MH047], the Kd with NCK1 SH3-2 domain [5], with NCK1 SH3-2 domain [6] and with NCK1 SH3-2 domain [4] was below 300 µM each time.

In turn, EPRPPKR-NH2 (not fully specified (residue 1)) [MH043] came in with a Kd with NCK1 SH3-2 domain [4] below 300 µM.

With Ac-IPPPPR-NH2 [MH038], the Kd with NCK1 SH3-2 domain [1] was above 1000 µM.

The molecule H-PPRPPKR-NH2 [MH075] displayed a Kd with NCK1 SH3-2 domain [4] below 300 µM.

As to Ac-PAVPPRP-NH2 [MH082], in the assay with NCK1 SH3-2 domain [7], the binding result is “no binding”.

Ac-PPRPPKR-NHEt [MH046] had a Kd in the assay with NCK1 SH3-2 domain [4] below 300 µM.

As for Ac-PPRPPK-NH2 [MH035], in the assay with NCK1 SH3-2 domain [1], the Kd is above 1000 µM.

The molecule Ac-PRPPAR-NH2 [MH012] had a Kd with NCK1 SH3-2 domain [3] below 600 µM.

Take Ac-PPPRPP-NH2 [MH036]: the Kd in the assay with NCK1 SH3-2 domain [1] is above 1000 µM.

Turning to Ac-SPAKGEPSLPEK-NH2 [MH133], the binding result with NCK1 SH3-2 domain [7] was “no binding”.

Consider Ac-PRPPKR-NH2 [MD20], for which the Kd with NCK1 SH3-2 domain [3] is below 300 µM; with NCK1 SH3-2 domain [6], below 300 µM; with NCK1 SH3-2 domain [8], below 193 µM.

As to H-PAVPPRP-NH2 [MH081], the binding result with NCK1 SH3-2 domain [7] is recorded as “no binding”.

In the case of Ac-PPPRPPK-NH2 [MH041], the Kd with NCK1 SH3-2 domain [1] was above 1000 µM.

On to Ac-PRPAKR-NH2 [MH011], for which the Kd in the assay with NCK1 SH3-2 domain [3] is above 1000 µM.

As to Ac-ARPPKR-NH2 [MH008], the Kd with NCK1 SH3-2 domain [3] was above 1000 µM.

Consider Ac-PPRPPKR-NH2 [MD18], for which the Kd is below 300 µM in the assay with NCK1 SH3-2 domain [6] and below 193 µM with NCK1 SH3-2 domain [8].

As to Ac-PAPPKR-NH2 [MH009], in the assay with NCK1 SH3-2 domain [3], the Kd was below 300 µM.
